Experimental data: the MegaScale stability set (Tsuboyama et al. 2023)

B1: EHEE_rd2_1257 (parent)
chain: EEERTFTNEEEARKAKKEAEKRGLRVTVTKDGTTWRVRIG

Variants of: B1
Test: folding stability dG (cDNA display proteolysis); higher = more stable
Conditions: PBS, room temperature

Variant | folding stability dG [kcal/mol]
EEYRTFTNEEEARKAKKEAEKRGLRVTVTKDGTTWRVRIG [E3Y] | 2.08
EEERTFTNEEEARKAKKEAEKRGLRVTVTKDGTTWRVRIK [G40K] | 2.07
EEERTFTNEEEARKAKKEAEKRGLRVTVTKDGTTWRVRIS [G40S] | 2.6
EEERTFTNEEEARKAKKEAEKRGLRVTVTKDGTTWRVRIF [G40F] | 3.04
EEERTFTNEEEARKAKKEAEKRGLRVTVTKDGTTWRVRIE [G40E] | 2.56
EEERTFTNEEEARKAKKEAEKRGLRVTVTKDGTTWEVRIG [R36E] | 0.524
EEERTFTNEEEARKAKKEAEKRGLRVTVTKDGTTWIVRIG [R36I] | 3.03
EEERTFTNEEEARKAKKEAEKRGLRVTVTKDGTTWHVRIG [R36H] | 1.81
EEERTFTNEEEARKAKKEAEKRGLRVTWTKDGTTWRVRIG [V28W] | 0.937
EEERTFTNEEEARKAKKEAEKRGLRVTMTKDGTTWRVRIG [V28M] | 2.37
EEERTFTNEEEARKAKKEAEKRGLRVTCTKDGTTWRVRIG [V28C] | 1.96
EEERTFTNEELARKAKKEAEKRGLRVTVTKDGTTWRVRIG [E11L] | 1.31
EEERTFTNEEMARKAKKEAEKRGLRVTVTKDGTTWRVRIG [E11M] | 1.55
EEERTFTNEEDARKAKKEAEKRGLRVTVTKDGTTWRVRIG [E11D] | 2.28
EEERTFTNEEIARKAKKEAEKRGLRVTVTKDGTTWRVRIG [E11I] | 0.287
EEERTFTNEEEARKAKKEAEKRGLRVRVTKDGTTWRVRIG [T27R] | 1.62
EEERTFTNEEEARKAKKEAEKRGLRVGVTKDGTTWRVRIG [T27G] | 0.262
EEERTFTNEEEARKAKKEAEKRGLRVWVTKDGTTWRVRIG [T27W] | 1.96
EEERTFTNEEEARKAKKGAEKRGLRVTVTKDGTTWRVRIG [E18G] | 0.934
EEERTFTNEEEARKAKKRAEKRGLRVTVTKDGTTWRVRIG [E18R] | 1.22
EEERTFTNEEEARKAKKQAEKRGLRVTVTKDGTTWRVRIG [E18Q] | 1.64

Variant | folding stability dG [kcal/mol]
EEERTFTNEEEARKAKKEAEKRGLRVTVTKFGTTWRVRIG [D31F] | 1.69
EEERTFTNEEEARKAKKEAEKRGLRVTVTKNGTTWRVRIG [D31N] | 1.57
EEERTFTNEEEARKAKKEAEKRGLRVTVTKHGTTWRVRIG [D31H] | 1.78
EEERTFTNEEEARKAKKEAEKRGLRVTVTKGGTTWRVRIG [D31G] | 0.303
EEERTFTNEEEARKAKKEAEKRGLRVTVTKIGTTWRVRIG [D31I] | 2.22
EEERTFTNEEEARKAKKEAEKRGLRVTVTKDGTTWRVFIG [R38F] | 2.23
EEERTFTNEEEARKAKKEAEKRGLRVTVTKDGTTWRVGIG [R38G] | 0.853
EEERTFTNEEEARKAKKEAEKRGLRVTVTKDNTTWRVRIG [G32N] | 0.966
EEERTFTNEEEARKAKKEAEKRGLRVTVTKDSTTWRVRIG [G32S] | 0.582
EEERTFTNEEEWRKAKKEAEKRGLRVTVTKDGTTWRVRIG [A12W] | 0.906
EEERTFTNEEEVRKAKKEAEKRGLRVTVTKDGTTWRVRIG [A12V] | 1.51
EEERTFTNEEEARKAKLEAEKRGLRVTVTKDGTTWRVRIG [K17L] | 2.45
EEERTFTNEEEARKAKFEAEKRGLRVTVTKDGTTWRVRIG [K17F] | 2.36
EEERTFTNEEEARKAKSEAEKRGLRVTVTKDGTTWRVRIG [K17S] | 2.19
EEERTFTNEEEARKAKMEAEKRGLRVTVTKDGTTWRVRIG [K17M] | 2.48
EEERTFTNEEEARKAKKETEKRGLRVTVTKDGTTWRVRIG [A19T] | 0.176
EEERTFTNEEEARKAKKEVEKRGLRVTVTKDGTTWRVRIG [A19V] | 0.703
EEERTFTNEEEARKAKKEHEKRGLRVTVTKDGTTWRVRIG [A19H] | 1.06
EEERTFTNEEEARKAKKEAEKRHLRVTVTKDGTTWRVRIG [G23H] | 0.993
EPERTFTNEEEARKAKKEAEKRGLRVTVTKDGTTWRVRIG [E2P] | 1.43
EVERTFTNEEEARKAKKEAEKRGLRVTVTKDGTTWRVRIG [E2V] | 2.3

Variant | folding stability dG [kcal/mol]
ELERTFTNEEEARKAKKEAEKRGLRVTVTKDGTTWRVRIG [E2L] | 2.26
EKERTFTNEEEARKAKKEAEKRGLRVTVTKDGTTWRVRIG [E2K] | 1.73
ERERTFTNEEEARKAKKEAEKRGLRVTVTKDGTTWRVRIG [E2R] | 1.97
EEERTFTNEEEARKAKKEAEKRGLRVTVIKDGTTWRVRIG [T29I] | 2.36
EEERTFTNEEEARKAKKEAEKRGLRVTVYKDGTTWRVRIG [T29Y] | 2.33
EEERTFTNEEEARKAKKEAEKRGLRVTVDKDGTTWRVRIG [T29D] | 1.2
EEERTFTNEEEARKAKKEAEKRGLRVTVEKDGTTWRVRIG [T29E] | 1.87
EEERTFTNEEEARKAKKEAEKRGLRVTVVKDGTTWRVRIG [T29V] | 2.18
EEERTFTNEEEARKAKKEAEKRGLRVTVFKDGTTWRVRIG [T29F] | 2.32
EEERTFTNEEEARKAKKEAEKRGLRVTVTKDGATWRVRIG [T33A] | 2.13
EEERTFTNEEEARKAKKEAEKRGLRVTVTKDGWTWRVRIG [T33W] | 1.65
EEERTFTNEEEARKAKKEAEKRGLRVTVTKDGITWRVRIG [T33I] | 1.89
EEERTFTNEEEARKAKKEAEKRGLRVTVTKDGRTWRVRIG [T33R] | 1.57
EEERTFTNEEEARKAKKEAEKRGLRVTVTKDGQTWRVRIG [T33Q] | 2.27
EEERTFTNEEEARKAKKEAEKRGLRVTVTKDGTWWRVRIG [T34W] | 2.08
EEERTFTNEEEARKAKKEAEKRGLRVTVTKDGTYWRVRIG [T34Y] | 2.4
EEERTFTNEEEARKAKKEAEKRGLRVTVTKDGTRWRVRIG [T34R] | 1.87
YEERTFTNEEEARKAKKEAEKRGLRVTVTKDGTTWRVRIG [E1Y] | 3.06
WEERTFTNEEEARKAKKEAEKRGLRVTVTKDGTTWRVRIG [E1W] | 3.19
HEERTFTNEEEARKAKKEAEKRGLRVTVTKDGTTWRVRIG [E1H] | 2.05
